Data from doi:10.1101/338061.

How the values were obtained:
MBD4 MBD = MBD4 MBD (Homo sapiens, UniProt O95243 55-152); test: ITC
MBD1 MBD = biological target: T1, MBD1 MBD (Homo sapiens, UniProt Q9UIS9 1-77); test: ITC
T1 sequence: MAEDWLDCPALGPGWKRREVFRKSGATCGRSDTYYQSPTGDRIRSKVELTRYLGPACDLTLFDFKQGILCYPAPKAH

MBD3 MBD = MBD3 MBD (Homo sapiens, UniProt O95983 1-71); test: ITC
MeCP2 MBD = MeCP2 MBD (Homo sapiens, UniProt P51608 80-164); test: ITC
MBD2 MBD = MBD2 MBD (Homo sapiens, UniProt Q9UBB5 143-220); test: ITC
MBD2 MBD R188A = MBD2 MBD R188A (Homo sapiens, UniProt Q9UBB5 143-220, R188A); test: ITC
MBD2 MBD R166A = MBD2 MBD R166A (Homo sapiens, UniProt Q9UBB5 143-220, R166A); test: ITC
[1] = biological target: MBD3 MBD (crystallization) (Homo sapiens, UniProt O95983 1-71); test: crystal structure
Sequence of MBD3 MBD (crystallization) (O95983 1-71): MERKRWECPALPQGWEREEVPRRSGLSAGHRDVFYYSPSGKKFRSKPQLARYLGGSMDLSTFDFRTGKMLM

Sequence of MBD2 MBD (Q9UBB5 143-220): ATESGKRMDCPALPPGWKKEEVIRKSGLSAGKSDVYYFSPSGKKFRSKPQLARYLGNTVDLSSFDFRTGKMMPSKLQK
Sequence of MeCP2 MBD (P51608 80-164): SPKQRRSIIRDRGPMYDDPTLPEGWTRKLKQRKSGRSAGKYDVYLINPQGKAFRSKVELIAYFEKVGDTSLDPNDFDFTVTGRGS
Sequence of MBD3 MBD (O95983 1-71): as the sequence (O95983 1-71) above
Sequence of MBD4 MBD (O95243 55-152): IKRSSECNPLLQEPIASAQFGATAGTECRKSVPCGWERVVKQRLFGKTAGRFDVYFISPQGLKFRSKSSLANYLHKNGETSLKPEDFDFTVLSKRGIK
Sequence of MBD2 MBD R166A (Q9UBB5 143-220 R166A): as the sequence (Q9UBB5 143-220) above, with R24A counted along it
Sequence of MBD2 MBD R188A (Q9UBB5 143-220 R188A): as the sequence (Q9UBB5 143-220) above, with R46A counted along it

B1: AmCGT (mCG) (dsDNA)
DNA 1: GCCAACGTTGGC
DNA 2: GCCAACGTTGGC
modifications: 5mC at position 6 of both strands
**Q.** For B1, which Kd (MBD4 MBD) is on record?
**A.** 400 ± 100 nM

**Q.** What about the Kd (MBD1 MBD) of the same binder?
**A.** 1000 ± 100 nM

**Q.** What about the Kd (MBD3 MBD) of the same binder?
**A.** 5400 ± 1200 nM

**Q.** And the Kd (MeCP2 MBD)?
**A.** 1200 ± 200 nM

**Q.** And the Kd (MBD2 MBD)?
**A.** 900 ± 200 nM

B2: hmCG (dsDNA)
DNA 1: GCCAGCGCTGGC
DNA 2: GCCAGCGCTGGC
modifications: 5hmC at position 6 of both strands
**Q.** For B2, which Kd (MeCP2 MBD) is on record?
**A.** 32000 ± 4000 nM

**Q.** What about the Kd (MBD2 MBD) of the same binder?
**A.** 9700 ± 2300 nM

B3: GmCGC (dsDNA)
DNA 1: GCCAGCGCTGGC
DNA 2: GCCAGCGCTGGC
modifications: 5mC at position 6 of both strands
**Q.** B3 was tested. Which Kd (MBD3 MBD) did it give?
**A.** 5200 ± 500 nM

**Q.** What about the Kd (MBD2 MBD R188A) of the same binder?
**A.** 5600 ± 500 nM

**Q.** Does B3 bind (MBD2 MBD R166A)?
**A.** no binding

B4: AmCGC (dsDNA)
DNA 1: GCCAACGCTGGC
DNA 2: GCCAGCGTTGGC
modifications: 5mC at position 6 of both strands
**Q.** Does B4 bind [1]?
**A.** binds

B5: mCG/TG (dsDNA)
DNA 1: GTCAACGTTACG
DNA 2: CGTAATGTTGAC
modifications: 5mC at position 6 of strand 1
**Q.** What does the source list for B5?
**A.** Kd (MBD4 MBD): 1500 ± 300 nM; Kd (MBD1 MBD): 2200 ± 300 nM; Kd (MBD3 MBD): 6500 ± 1200 nM; Kd (MeCP2 MBD): 1200 ± 200 nM; Kd (MBD2 MBD): 1600 ± 200 nM
